Experimental data: patent publication US10006080B2, “High-selectivity contact activation inhibitor based on infestin-4” (OBSCHESTVO S OGRANICHENNOY OTVETSTVENNOSTYU …, priority 2013, dated 2018)

Tests used:
[1] = system: whole blood; experiment: Spontaneous clotting time of whole blood collected without calcium chelator; parameters: species or system human; details: MutB 10 μM, CTI 5 μM; 22° C., no calcium chelator; 3 healthy donors
Procedure: We used concentrations of contact activation inhibitors leading to 2.5-fold increase of APTT in normal plasma. Untreated whole blood was collected from 3 healthy donors without adding any anticoagulant, for example, citrate, except for the said contact activation inhibitors. The blood was mixed with the said inhibitors at 22° C. using a rotator, after which the time of clot formation in the blood was measured.
Blood was collected from the median cubital vein of the left hand into a sterile syringe Master UN PE, volume 10 ml, needle 21 G×1½″; 0.8×40 mm (FarmLine, USA). Calcium chelator or other anticoagulants, except contact activation inhibitors MutB or CTI, were not added into plasma. […] The collected blood was poured into a 15 ml tube, mixed by inverting it twice, after which 0.7 ml portions of blood were poured into 1.5 ml polypropylene microcentrifuge tubes MaxyClear Snaplock (Axygen, USA); immediately after, time record using a stopwatch started. Preliminarily, 78 microliters of MutB solution at 100 μM concentration, CTI solution at 50 μM concentration, or buffer solution of 30 mM Hepes pH 7.4 were added into the said tubes. The tubes containing the mixture of whole blood with the said solutions were fixed in the rotator and mixed by inverting them at the rotation speed of 10 rpm. The time of appearance of clots or fibrin filaments in the whole blood during mixing was fixed.

[2] = molecular target: T1, fXIa (Homo sapiens, UniProt P03951); experiment: Chromogenic test of protease inhibition in buffer, fXIa (substrate S-2366); assay type: biochemical; details: buffer solution, summary of Table 2
T1 construct: factor XI into its active form, factor XIa (fXIa)
T1 sequence (P03951 388-625 limits assumed): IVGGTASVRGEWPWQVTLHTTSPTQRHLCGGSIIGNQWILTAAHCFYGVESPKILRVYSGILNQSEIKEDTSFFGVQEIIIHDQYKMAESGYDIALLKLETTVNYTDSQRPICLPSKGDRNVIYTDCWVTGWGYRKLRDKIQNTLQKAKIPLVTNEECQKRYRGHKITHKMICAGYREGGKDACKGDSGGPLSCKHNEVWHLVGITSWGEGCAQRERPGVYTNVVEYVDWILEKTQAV
T1 sequence (P03951 19-387 partner limits assumed): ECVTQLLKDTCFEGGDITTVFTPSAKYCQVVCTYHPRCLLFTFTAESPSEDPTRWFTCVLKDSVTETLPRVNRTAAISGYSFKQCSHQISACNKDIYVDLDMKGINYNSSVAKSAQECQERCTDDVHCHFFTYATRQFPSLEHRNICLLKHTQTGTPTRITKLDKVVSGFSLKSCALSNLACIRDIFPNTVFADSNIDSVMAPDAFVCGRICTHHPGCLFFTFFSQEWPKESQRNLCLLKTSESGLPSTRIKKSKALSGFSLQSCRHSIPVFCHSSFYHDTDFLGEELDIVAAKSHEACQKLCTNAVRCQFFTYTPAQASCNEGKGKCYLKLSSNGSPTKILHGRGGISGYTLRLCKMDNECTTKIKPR
Procedure: In order to assess selectivity of the fXIIa inhibition by the polypeptide comprising the sequence of the infestin-4 mutant MutB, its inhibitory activity in buffer solution against the purified coagulation factors was determined. The polypeptide's activity was compared with the known fXIIa inhibitors: CTI, infestin-4, infestin-4-based mutant Mut15, LCTI-III. […] The standard deviation amounted to about 50% of the average value; each value was measured by performing 2-3 repeats.
To determine the inhibition activity of such proteins as MutB, CTI, Inf4, Mut15, and LCTI-III as related to different coagulation proteases in a buffer, the chromogenic test was used: the mixture of protease and inhibitor was incubated in the wells of the plate for 15 minutes at 37° C., after which the chromogenic substrate solution was added to the mixture, and the protease activity was measured as the rate of chromogenic product formation at 37° C.
Chromogenic substrates included a p-nitroanilide group cleaved by the corresponding proteases. After cleavage of the p-nitroanilide group from the substrate molecule, the group absorption spectrum changes, and the change of concentration of such product within time can be detected at the light wavelength of 405 nm using a plate spectrophotometer. To build a dependence curve of the protease activity from the inhibitor concentration, different inhibitor concentrations were added into several samples with the same protease concentration. After that, the inhibitor concentration able to decrease the protease activity by 50% (IC50) was determined. The inhibition constant Ki was calculated using the Cheng-Prusoff equation (Ki=IC50/(1+S/KM)), where S is the initial substrate concentration, KM is the Michaelis-Menten constant of the substrate to the protease.
Native infestin-4 and its mutants MutB and Mut15 used here were fusion proteins with thioredoxin I E. coli containing polyhisticline clusters. […]

| inhibition of fXIa (in words) [2] | Molecule | increase of the whole blood storage time in the tube (clotting time) [1] |
| --- | --- | --- |
| do not inhibit | MutB: polypeptide comprising the sequence of infestin-4 mutant MutB (SEQ ID NO: 1), inhibition loop TRNFVA; high-selectivity fXIIa inhibitor (EVRNPCACTRNFVAVCGSDGKTYGNPCMLNCAAQTKVPGLKLVHEGRCQRSNVEQF; Infestin-4 mutant MutB) | two to three-fold |
| inhibits | corn trypsin inhibitor (other, UniProt P01088 29-138, looked up, Isolated from corn; also called CTI) SAGTSCVPGWAIPHNPLPSCRWYVTSRTCGIGPRLPWPELKRRCCRELADIPAYCRCTALSILMDGAIPPGPDAQLEGRLEDLPGCPREVQRGFAATLVTEAECNLATIS | two to three-fold |
